Experimental data reported in a protein production outcome set (Wang et al. 2014).

Assay: label from the status in PepcDB records

Sequence | protein production
MLQAGTKKFLREYGSTCAPLFLALGVCLICCLPAACPKENFIDENAISVSRVPVITGMLGELHMDTRISQYTRVVRGRRSVGSESIAVYVNAAFESSVVLANHLIYVLREKENMACDTNFYFFNDTSKDWPIPDSFVRAAIVINVTSFHTNNLCFNVFGANGMQPNQDLFNLAVAIAEKWRFNIDVLCQNPYISFSTSRPIYEHYFLALQTALVAPLRYQPWYKMRSRGISLLAISTEKSERRTKSSYGYNMAAAHEQLIATLSYLHERFHHSTSVWIPLSVDQYVEYDVIQFATILFVASLLSTCYSIYEVEGFSFSPCAALVSATGLAALVSTLNFGTAGFFVSSGVLTVGLGAFSWDMSWGAINAVVLCLLIILQPVAGLVMGFGATLQLQFIHVRCRKWHVLLIGAILSWIVLVALTEVMKAKLFDTETTAGVYFSFFLYPNALWISSRLIRSTLGA | failed
MLQGKVSVIVPAYNAARLLERCVRSITGQTYPALEVIVVDDGSKDDTGKIADQLAAEDSRIRVVHKTNGGVSAARNDALKLVEGEWITFVDSDDYLEPDFLRSLLDGEVADLVIGGYHTVGANEIPSANYPTDTAHSPEAIKRALEARLTDMTFLCPWGKLFRTSLVRSLRLIFNTEMKVGEDVVFVWSYLAHCSSLAFKQGQGYDYYTEPGADFKYALDETVSLQTIERILGVLDGLKRNFGMDTEHARCHVLNYYIWLFKLYVNRNYLLRDLARMKNFFYYPLILDYYKTYRRTSKDKLLVYLLLKLRLSGVLYLMIKLYYLEHHHHHH | not failed
MLQLTRVSRLMNIHCGALMNLKQQYQTSLITDALLHSLQTHSVCTTPSETIDSALNSDGMDRQWMSFFYLPELNSTTVNKIKSILSSFTEVGYIEIDQQTHHLAIYHDGPITPIEKNLEKQGIDVVFQQTQANYIPEPIDWKQIKKRHQILSWLFSINLIMLMVTFFTGLIASSTALIALALIIMSDVMIYAMTLYGIHEKQIGLYKFTRVGLYLQISLSLLLILAVIFQSVLQHQPLAQLIILVAALAFFTMLINMYLLIQTQQERPDLLNFRQWFSFYDVMFSFAVIVAGICCLLFDSNWPDITITTLMVFFLLDRSRRVFKKKTSFVVQ | failed
MLRGILWDMDGTLVDSEGIWAQATFAMSTEMGRRLTAAQQRETVGSSFNFTVSLCASNAGIELDSEAKNYWQSFMSHYVTEKFDSSLLPNPGIKEVLDSCRNAEIPMAIATNTIRSIANHSIGAVGIEYFKATVCGDEVANPKPAPDVYLKGAQALGVPPEGCIVFEDSKSGMLGGLAAGCIVISVVDHLNNQPLPEGVVPLSRLHGSADFRGVSAEEIMQWYATLSPNAQ | failed
MLRGVAALVVYKGKPALAEEKGGRLELTLEGGARQRVRPKDVLFLHPGPASLDLKVPEGEEEAAWELLEGQTVSLRELAELVYGAYTPEAALGAYLLAQKGERFVLEGEGVRARTREELLALQEAERKRAERERAFQEALKRLKEGSPAPEDRPLLAEVEALARGERKESPVLRALNLPETPEAAHAFLLRLGLWQRENPHPRRLGLPLQPPDLPVPPLPEEDRVDLTHLPAFAIDDEGSQDPDDAVFAEKVEGGFRLFVHVADVAALVPPKSPLDEEALRRGANLYLPEGTVPMLPPAVTEALGLGLREVSPALTFELWVSEEGELLEERVYPSWVRVTRLTYREALGVEALRPLEALAEAFRAKRLAAGALEIALPEVKVRVEGEEVRITPLPPYPSRVWVREAMLLAGYAAAHLAVREGLPFPFATQEAPARRVEGEGLAAMWEQRKALKRAQLKAVPAPHKGLGLPLYAQVTSPLRRYLDLVAHQQLRAWLKGERPLSQAEVLERVGAAEAVADLVREAERKSKLHWTLLHLEAKGYEGPGVLVERRGGQGVFLLPELGLTAQVALPKALPLNAEARLRFLEADLPALEARFALV | failed
MLRHIVLLILLSSEVRGVCNRIPQGASGPRSPVDDNFKILIDGNPETYVPEHQYNVSLSCPINMKFVSFTLVVEAEDPSAAFGGQDMTGHFELLGVGDTRFSTSCENMVENTNTNAKIYIAVSWIAPRNPDSGCVLIKAGVVQHRDVWFLDDGFLTKRICPEEIDELNSLTPPLETCCACDEAKYEIVLERKWARNTHWKDFPSEDWRTRLGEVIGASHSHSYRYWAYGGRASKGMKELAEHGATRTLENEIRENTQNGEVRTIIKAPGIPYRPKTFGTTLANARLDPVHHQISLAAKIDPSPDWILGVAGLELCLSNCTWLERKSSDEPQVPPDVVRRITSSYPSDHRSPFYDDTGAPMKPLATLYLTRKKLYIRECEEVLVPQEGPLECAVHPWNEWTNCSTRCGQGYSHRQRSFKNPNLAANFNCDRRLEEFRQCQGTQCGAAEEELEGEEPGLGMENPPSSGSMAECQLTNWGEWSPCTKTCGRGSSTRTRDYYNPQARQRCLSVMRIPLEETRECIGSDCGGTIPDNGELDGFPEPDVFGETDHGGYMGKTTSWNSKQEHSSLGSGNQAWNRKPYNSWKDKSLSNPRDNAQESPNLPFDQIENPQRPAYNPSDNMGGYDKGFPPTNSYSNDKLVGNRPGYNDFNSDYNNKDAYNDYTTPSFTSRTPFGSRYPNQQETVEGNTNDINGNYNVVQDYCFEKPYASTLPCFAKPVVESNYWFYDHEDHECKIFTTDNCDQNRNRFRTLTACEGTCLQPQINMERSENDAMDLYGRRSYDQKQTRDHISKQEVDPMINQKIGPMTYRQQEVDPMEKPVKQVILENPCRRPGADTTHPDAVGMAAEQIKAFKSPKLEENKY | failed
MLRKNILAYYGANFLLIIAQSLPHAILTPLLLSKGLSLSEILLVQTFFSFCVLVAEYPSGVLADLMSRKNLFLVSNAFLIASFSFVLFFDSFIFMLLAWGLYGLYSACSSGTIEASLITDIKENKKDLSKFLAKNNQITYLGMIIGSSLGSFLYLKVHAMLYIVGIFLIMLCVLTIIFYFKEKEGDFKSQKSLKLLKEQVKGSLKELKDNPKLKILLVGHLITPVFFMSHFQMWQAYFLKQGVKEQYLFVFYIAFQVISILIHFLKASSYSQKIALSSLVVLLGVSPLLLSNIPYCFIGVYALMVAFFTYMSYCLNYQFSKFVSKNNISSLSSLLSSCVRVVSVLILSLSSLELRYFSPLTIITMHFALTLIILFFFLYKAKPFDE | failed
MLRRIVALAAVAAGGMMLSKTFRKSRDSGYTSSVENFIEVNVPVSTAYNQWTQFEEFPRFMKGVREVQQIDDTHLHWRAEIAGKEEEWDAEITEQVPDQRIAWHSTNGAKNSGVVSFYGISDSKTRVVLKMDYGPRTFLEGLGDALGAVKARTSEDLRCFKEFLESRGKETGAWRGSVGQH | failed
MLRSLLVPLFSNAASSTDDHGITLPQYQVFINFRGDELRNSFVGFLVKAMRLEKINVFTDEVELRGTNLNYLFRRIEESRVAVAIFSERYTESCWCLDELVKMKEQMEQGKLVVVPVFYRLNATACKRFMGAFGDNLRNLEWEYRSEPERIQKWKEALSSVFSNIGLTSDIRRYNLINKNMDHTSEFLYIVLILNFFSEISDMTGLTTSYQFLLMMKSNLISYDIYIYPTKFCVNVFIGV | failed
MLRSTVIVTAHRRKAFIKDAIESVMENSLKPTEIIVVKNFKDYQIDSFLETYHVKNIYTDDETLGGKISLGIYQSSGDILFFLDDDDLFSKDKIREVIYKFSKYDIGFYHNAQEVIHNKLTGSNLSTDNQRFMYYTSIDTRRLKELLYKFKAGFNGSSIVISRDLAMRCVDLLKNVNISVDTFLLFCAVENNLPIMIDFRKLTYYRIIMSQNSNTEVNDKLFKMLYEDALYFKQIFSSKALRDFIEMSIIQHDFLYKIISKKEISKRDALISMVKMLRYSLKYPNKWNFFLQGLSLLSVFSAEKSRSLYLKKVRSNSMLSILEHHHHHH | not failed
MLSEQKEIAMQVSGMTCAACAARIEKGLKRMPGVTDANVNLATETVNVIYDPAETGTAAIQEKIEKLGYHVVTEKAEFDIEGMTCAACANRIEKRLNKIEGVANAPVNFALETVTVEYNPKEASVSDLKEAVDKLGYKLKLKGEQDS | not failed
MLSFLSARQSGLEDPLRLRRAQSTRRVLGLELNKDRDVERIHGSGVNTLDIEPVEGRYMLSGGSDGVVVLYDLENASRQPHYTCKAVCSVGRSHPDVHKYSVETVQWYPHDTGMFTSSSFDKTLKVWDTNTLQAADVFNFEETVYSHHMSPAATKHCLVAVGTRGPKVQLCDLKSGSCSHILQGHRQEILAVSWSPRHDYILATASADSRVKLWDVRRASGCLLTLDQHNGKKSQAAESANTAHNGKVNGLCFTSDGLHLLTIGTDNRMRLWNSSSGDNTLVNYGKVCNDSRKGLQFAVSCGCSSEFVFVPHGSTIAVYAVHSGERLAMLKGHYKSVDCCVFQPNFQELYSGSRDCNILAWVPPSYEPVPDDDDEAPAKSQLNPAFADAWSSSDEDG | failed
MLSFVVMSFLIFVIVMVNEHKAHLSVIQKMILAVVNGSITIILSIIVFYIFYPQNISLFLITAGILTVFVFLYGLLLFLFGFTHRELSYLSKYDKYKFLCKFTIEMFSSLTNHAFLTISAIVLYQIQHPKPTIDFIVMIGMITISVIVVMLLFLKTYSIIIKQLKKLENN | failed
MLSIIEQIKQGQLWDFHGGIHPEENKTISNQAAIQQAGIPSQLVLPLKQHIGGKGDILVSVGDVVLKGQPLTQGNIAMCVPVHAPTSGRITAIEPRTVAHPSGLTDLCIVIESDGEDRWVEDRTPIDDFSSVDPIDLIERIRQSGISGMGGAGFPTSRKIQSGIGKAEMLIINAAECEPYITADDRLMREHAEEIIDGIKILQHILTPKVCIIAIEDNKPEAVKALNQAVTDHDNIIIRVIPTKYPSGGSRQLTKIITGQEVPANGRSTDIGVIVQNVGTVFAIKRAICDAEPLIERIVTLTGNSMSTPGNLWVRLGTCIDYLMELVGYKADKKHPRIIMGGSLMGFTLPHQQVPITKITNCIITPDKKELPLYNHEMACIRCSSCADACPTSLLPQQLYWYSKSEDYDKCNEYNLNDCIECGACAYVCPSEIPLVQYYRQAKSEIYSRKQDALAAERAKLRFEEKNARLERDKLERENKFKQAAENRRKEMKTENKGGDDAIAAAIARVKAQKAAQESGVAAPKPAVAAAIARAKAKQAEAAKSETSVPDNSEMAKLREERKQQARERKAKLAEETTATDSDKSEKKDAVAAAIARAKARKAAQAEEKTETPVASEEKNQNTEGSADPKKAAVAAAIARAKARKAAQAEEKTETPVTSEEKNQNTEGSADPKKAAVAAAIARAKARKAAQAEEKTETPVASEEKNQNTEGSADPKKAAVAAAIARAKARKAAQAEEKTETPVTSEEKNQNTEGSADPKKAAVAAAIARAKARKATQAEEKTETPVTSEEKNQNTEESADPKKAAVAAAIARAKARKAAQENNKKEE | failed
